B1: ATAD3A-Flag [not stated] / itself (parent)
chain: MSWLFGIKGPKGEGTGPPLPLPPAQPGAESGGDRGAGDRPSPKDKWSNFDPTGLERAAKAARELEHSRHAKEALNLAQMQEQTLQLEQQSKLKEYEAAVEQLKSEQIRVQAEERRKTLNEETRQHQARAQYQDKLARQRYEDQLKQQQLLNEENLRKQEESVQKQEAIRRATVEREMELRHKNEMLRVEAEARARAKADRENADIIREQIRLKAAEHRQTILESIRTAGTLFGEGFRAFVTDWDKVTATVAGLTLLAVGVYSAKNATSVAGRYIEARLGKPSLVRETSRISVLEALRHPIQVSRRLVSRPQDALEGVILSPSLEARVRDIAIATRNTKKNKSLYRNVLMYGPPGTGKTLFAKKLALHSGMDYAIMTGGDVAPMGREGVTAMHKVFDWASTSRRGLLLFVDEADAFLRKRATEKISEDLRATLNAFLHRTGQHSNKFMLVLASNQPEQFDWAINDRIDEMVCFALPQREERERLVRMYFDKYVLKPATEGKQRLKVAQFDYGKKCSEVAQLTAGMSGREIAQLAVAWQAMAYSSEDGVLTEAMMDARVQDAVQQHQQKMQWLKVERPDSEASKPPHPSLLSC

Variants of: B1
Test: native gel electrophoresis (-DTT), anti-Flag immunoblot, oligomer band quantified
Conditions: with itself, H9c2 cells, n = 3, mean ± SEM, parent: 1, read off a plot

response	Variant
0.16 arbitrary	MSWLFGIKGPKGEGTGPPLPLPPAQPGAESGGDRGAGDRPSPKDKWSNFDPTGLERAAKAARELEHSRHAKEALNLAQMQEQTLQLEQQSKLKEYEAAVEQLKSEQIRVQAEERRKTLNEETRQHQARAQYQDQLARQRYEDQLKQQQLLNEENLRKQEESVQKQEAIRRATVEREMELRHKNEMLRVEAEARARAKADRENADIIREQIRLKAAEHRQTILESIRTAGTLFGEGFRAFVTDWDKVTATVAGLTLLAVGVYSAKNATSVAGRYIEARLGKPSLVRETSRISVLEALRHPIQVSRRLVSRPQDALEGVILSPSLEARVRDIAIATRNTKKNKSLYRNVLMYGPPGTGKTLFAKKLALHSGMDYAIMTGGDVAPMGREGVTAMHKVFDWASTSRRGLLLFVDEADAFLRKRATEKISEDLRATLNAFLHRTGQHSNKFMLVLASNQPEQFDWAINDRIDEMVCFALPQREERERLVRMYFDKYVLKPATEGKQRLKVAQFDYGKKCSEVAQLTAGMSGREIAQLAVAWQAMAYSSEDGVLTEAMMDARVQDAVQQHQQKMQWLKVERPDSEASKPPHPSLLSC [chain 1 K134Q]
0.42 arbitrary	MSWLFGIKGPKGEGTGPPLPLPPAQPGAESGGDRGAGDRPSPKDKWSNFDPTGLERAAKAARELEHSRHAKEALNLAQMQEQTLQLEQQSKLKEYEAAVEQLKSEQIRVQAEERRKTLNEETRQHQARAQYQDALARQRYEDQLKQQQLLNEENLRKQEESVQKQEAIRRATVEREMELRHKNEMLRVEAEARARAKADRENADIIREQIRLKAAEHRQTILESIRTAGTLFGEGFRAFVTDWDKVTATVAGLTLLAVGVYSAKNATSVAGRYIEARLGKPSLVRETSRISVLEALRHPIQVSRRLVSRPQDALEGVILSPSLEARVRDIAIATRNTKKNKSLYRNVLMYGPPGTGKTLFAKKLALHSGMDYAIMTGGDVAPMGREGVTAMHKVFDWASTSRRGLLLFVDEADAFLRKRATEKISEDLRATLNAFLHRTGQHSNKFMLVLASNQPEQFDWAINDRIDEMVCFALPQREERERLVRMYFDKYVLKPATEGKQRLKVAQFDYGKKCSEVAQLTAGMSGREIAQLAVAWQAMAYSSEDGVLTEAMMDARVQDAVQQHQQKMQWLKVERPDSEASKPPHPSLLSC [chain 1 K134A]
1 arbitrary	MSWLFGIKGPKGEGTGPPLPLPPAQPGAESGGDRGAGDRPSPKDKWSNFDPTGLERAAKAARELEHSRHAKEALNLAQMQEQTLQLEQQSKLKEYEAAVEQLKSEQIRVQAEERRKTLNEETRQHQARAQYQDELARQRYEDQLKQQQLLNEENLRKQEESVQKQEAIRRATVEREMELRHKNEMLRVEAEARARAKADRENADIIREQIRLKAAEHRQTILESIRTAGTLFGEGFRAFVTDWDKVTATVAGLTLLAVGVYSAKNATSVAGRYIEARLGKPSLVRETSRISVLEALRHPIQVSRRLVSRPQDALEGVILSPSLEARVRDIAIATRNTKKNKSLYRNVLMYGPPGTGKTLFAKKLALHSGMDYAIMTGGDVAPMGREGVTAMHKVFDWASTSRRGLLLFVDEADAFLRKRATEKISEDLRATLNAFLHRTGQHSNKFMLVLASNQPEQFDWAINDRIDEMVCFALPQREERERLVRMYFDKYVLKPATEGKQRLKVAQFDYGKKCSEVAQLTAGMSGREIAQLAVAWQAMAYSSEDGVLTEAMMDARVQDAVQQHQQKMQWLKVERPDSEASKPPHPSLLSC [chain 1 K134E]

From article PMC10797690, “The SIRT3-ATAD3A axis regulates MAM dynamics and mitochondrial calcium homeostasis in cardiac hypertrophy” (International Journal of Biological Sciences, 2024)
